# Data: paper PMC4912689, “The Extracellular Surface of the GLP-1 Receptor Is a Molecular Trigger for Biased Agonism” (Cell, 2016)
# B1: unnamed (parent)
# chain 1: HSQGTFTSDYSKYLDSRRAQDFVQWLMNTKRNRNNIA
# chain 2: RPQGATVSLWETVQKWREYRRQCQRSLTEDPPPATDLFCNRTFDEYACWPDGEPGSFVNVSCPWYLPWASSVPQGHVYRFCTAEGLWLQKDNSSLPWRDLSECEESKRGERSSPEEQLLFLYIIYTVGYALSFSALVIASAILLGFRHLHCTRNYIHLNLFASFILRALSVFIKDAALKWMYSTAAQQHQWDGLLSYQDSLSCRLVFLLMQYCVAANYYWLLVEGVYLYTLLAFSVLSEQWIFRLYVSIGWGVPLLFVVPWGIVKYLYEDEGCWTRNSNMNYWLIIRLPILFAIGVNFLIFVRVICIVVSKLKANLMCKTDIKCRLAKSTLTLIPLLGTHEVIFAFVMDEHARGTLRFIKLFTELSFTSFQGLMVAILYCFVNNEVQLEFRKSWERWRLEHLHIQRDSSMKPLKCPTSSLSSGATAGSSMYTATCQASCS
# Variants of: B1
# Assay: radioligand inhibition binding (competition with 125I-exendin-4(9-39))
# Conditions: read off a plot
row,Variant,log10 ratio
1,chain 2 N279A,-1.4 ΔpKi
2,chain 2 W191A,-0.15 ΔpKi
3,chain 2 Q187A,-0.65 ΔpKi
4,chain 2 L195A,-0.5 ΔpKi
5,chain 2 Y182A,-0.3 ΔpKi
6,chain 2 L194A,-0.15 ΔpKi
7,chain 2 T184A,-0.05 ΔpKi
8,chain 2 N281A,-0.5 ΔpKi
9,chain 2 Y266A,0.1 ΔpKi
10,chain 2 Q198A,0.15 ΔpKi
11,chain 2 E350A,-0.85 ΔpKi
12,chain 2 W274A,-0.1 ΔpKi
13,chain 2 T355A,-0.55 ΔpKi
14,chain 2 L178A,-0.9 ΔpKi
15,chain 2 K360A,-0.9 ΔpKi
16,chain 2 L356A,-0.8 ΔpKi
17,chain 2 K265A,-1.4 ΔpKi
18,chain 2 G354A,-0.45 ΔpKi
19,chain 2 L267A,-0.4 ΔpKi
20,chain 2 S183A,0.1 ΔpKi
21,chain 2 Y197A,-0.3 ΔpKi
22,chain 2 H189A,0.2 ΔpKi
23,chain 2 V264A,-0.25 ΔpKi
24,chain 2 F358A,-1.1 ΔpKi
25,chain 2 Q188A,-0.05 ΔpKi

row,Variant,log10 ratio
1,chain 2 Q190A,0.1 ΔpKi
2,chain 2 M280A,-0.8 ΔpKi
3,chain 2 S278A,-0.35 ΔpKi
4,chain 2 I359A,0.05 ΔpKi
5,chain 2 G262A,0.1 ΔpKi
6,chain 2 R276A,-1.9 ΔpKi
7,chain 2 R357A,-0.55 ΔpKi
8,chain 2 W180A,-0.15 ΔpKi
9,chain 2 L284A,-0.85 ΔpKi
10,chain 2 N277A,-1.4 ΔpKi
11,chain 2 S196A,0.1 ΔpKi
12,chain 2 R353A,-0.35 ΔpKi
13,chain 2 M181A,-1.5 ΔpKi
14,chain 2 T275A,0.4 ΔpKi
15,chain 2 F362A,-0.15 ΔpKi
16,chain 2 H351A,-0.4 ΔpKi
17,chain 2 I263A,-0.15 ΔpKi
18,chain 2 S200A,-0.35 ΔpKi
19,chain 2 G272A,0.15 ΔpKi
20,chain 2 L361A,-0.85 ΔpKi
21,chain 2 E364A,-0.5 ΔpKi
22,chain 2 Y268A,-0.45 ΔpKi
23,chain 2 K179A,-0.85 ΔpKi
24,chain 2 Y282A,-1.9 ΔpKi
25,chain 2 T363A,-0.2 ΔpKi
